IntAct's records for PubMed 23686307

Molecular target: tf65_human RELA (UniProt Q04206)

| Substance | effect of a mutation on the interaction |
| --- | --- |
| Bromodomain-containing protein 4 (Homo sapiens) (from UniProt O60885) Y139A;N140A | decreasing interaction |
| Bromodomain-containing protein 4 (Homo sapiens) (from UniProt O60885) Y139A;N140A;Y432A;N433A | disrupting interaction |
| Bromodomain-containing protein 4 (Homo sapiens) (from UniProt O60885) Y432A;N433A | decreasing interaction |
